Earlier results as cited in PMC7811009, “Oxytocin modulates local topography of human functional connectome in healthy men at rest” (Communications Biology, 2021).

Assays:
[1] = rhesus monkeys, cited from earlier work
Excerpt: Our findings support our previous observations that increases in oxytocin in systemic circulation cannot fully account for the changes in rCBF observed after intranasal oxytocin[11] and lend support to the contribution of nose-to-brain pathways to the effects of intranasal oxytocin on brain function. However, they cannot highlight the precise mechanisms of transport underlying its functional effects. We believe that most evidence to date concurs on the idea that oxytocin, when administered intranasally, may diffuse from the olfactory and respiratory epithelia in the middle and upper poster ...

[2] = intravenous infusion, primates; cited from earlier work
Excerpt: It is not yet clear which precise mechanisms mediate the effects of intravenous oxytocin on brain function. […] At least three mechanisms have been postulated. First, it is possible that the direct peripheral effects of oxytocin on oxytocin receptors expressed in vegetative territories, such as the heart, may be an indirect source of changes in the brain.

labelled synthetic oxytocin: labelled synthetic oxytocin given intravenously or intranasally to primates / rhesus monkeys in cited studies
Brain regions reached ([1]; administered intranasally): reaches several brain regions (orbitofrontal cortex, striatum, thalamus and brainstem) | Labelled oxytocin in brain regions (orbitofrontal cortex, striatum, thalamus and brainstem) ([1]; same doses administered intravenously): No detectable amounts | Synthetic oxytocin levels in the CSF [2]: increased synthetic oxytocin levels in the CSF
